Reference: the Immune Epitope Database (IEDB)
Values belong to the sequence of their own block, whether it stands above or below them.

Tests used:
HLA-B*45:06 = test: IEDB peptide-MHC binding, purified MHC/competitive/fluorescence; filed as Kd, often an IC50 or EC50 that approximates it; ≥ and ≤ were set here for values at or beyond the usual limits of such assays
HLA-C*14:02 [1] = test: as above
HLA-B*83:01 = test: as above
HLA-A*32:15 = test: as above; conditions: source organism: Mycobacterium tuberculosis variant bovis BCG str. Pasteur 1173P2
HLA-B*15:42 = test: as above
HLA-B*46:01 = test: as above; conditions: source organism: Mycobacterium tuberculosis variant bovis BCG str. Pasteur 1173P2
HLA-A*69:01 = test: IEDB peptide-MHC binding, purified MHC/direct/fluorescence; filed as Kd, often an IC50 or EC50 that approximates it; ≥ and ≤ were set here for values at or beyond the usual limits of such assays; conditions: source organism: Mycobacterium tuberculosis
HLA-C*08:02 = test: as above
HLA-A*02:03 = test: as above; conditions: source organism: Mycobacterium tuberculosis str. Haarlem
HLA-C*05:01 = test: as above; conditions: source organism: Mycobacterium tuberculosis variant bovis BCG str. Pasteur 1173P2
HLA-B*51:01 = test: IEDB peptide-MHC binding, purified MHC/competitive/fluorescence; ≥ and ≤ were set here for values at or beyond the usual limits of such assays; conditions: source organism: Homo sapiens
HLA-A*25:01 = test: as above; conditions: source organism: Homo sapiens
HLA-A*02:01 = test: as above; conditions: source organism: Homo sapiens
HLA-B*37:01 = test: as above; conditions: source organism: Homo sapiens
HLA-B*08:01 = test: as above; conditions: source organism: Homo sapiens
HLA-A*03:01 = test: as above; conditions: source organism: Homo sapiens
HLA-A*31:01 = test: as above; conditions: source organism: Homo sapiens
HLA-B*18:01 = test: as above; conditions: source organism: Homo sapiens
HLA-A*01:01 [2] = test: as above; conditions: source organism: Homo sapiens
HLA-A*11:01 = test: as above; conditions: source organism: Homo sapiens
HLA-B*35:01 = test: as above; conditions: source organism: Homo sapiens
HLA-B*40:02 = test: as above; conditions: source organism: Homo sapiens
HLA-A*24:02 = test: as above; conditions: source organism: Homo sapiens
HLA-B*07:02 = test: as above; conditions: source organism: Homo sapiens
HLA-B*53:01 = test: as above; conditions: source organism: Homo sapiens
HLA-A*29:02 [3] = test: as above; conditions: source organism: Homo sapiens
HLA-B*14:02 = test: as above; conditions: source organism: Homo sapiens
HLA-A*68:02 = test: as above; conditions: source organism: Homo sapiens
HLA-B*44:03 = test: as above; conditions: source organism: Homo sapiens
HLA-B*58:01 = test: as above; conditions: source organism: Homo sapiens
HLA-C*14:02 [4] = test: IEDB peptide-MHC binding, purified MHC/direct/fluorescence; filed as Kd, often an IC50 or EC50 that approximates it; ≥ and ≤ were set here for values at or beyond the usual limits of such assays; conditions: source organism: Homo sapiens
HLA-C*06:02 = test: IEDB peptide-MHC binding, purified MHC/competitive/fluorescence; filed as Kd, often an IC50 or EC50 that approximates it; ≥ and ≤ were set here for values at or beyond the usual limits of such assays; conditions: source organism: Corynebacterium glutamicum ATCC 13032
HLA-A*68:23 = test: as above; conditions: source organism: Corynebacterium glutamicum ATCC 13032
HLA-C*15:02 = test: IEDB peptide-MHC binding, purified MHC/direct/fluorescence; filed as Kd, often an IC50 or EC50 that approximates it; ≥ and ≤ were set here for values at or beyond the usual limits of such assays; conditions: source organism: Corynebacterium glutamicum ATCC 13032
HLA-A*80:01 = test: IEDB peptide-MHC binding, purified MHC/competitive/fluorescence; filed as Kd, often an IC50 or EC50 that approximates it; ≥ and ≤ were set here for values at or beyond the usual limits of such assays; conditions: source organism: Rattus norvegicus
HLA-C*04:01 = test: as above; conditions: source organism: Rattus norvegicus
HLA-A*01:01 [5] = test: as above; conditions: source organism: Rattus norvegicus
HLA-A*29:02 [6] = test: as above; conditions: source organism: Rattus norvegicus
[7] = source organism: Mycobacterium tuberculosis variant bovis BCG str. Pasteur 1173P2
[8] = source organism: Corynebacterium glutamicum ATCC 13032
[9] = source organism: Rattus norvegicus

Sequence: FMFDYIPPV
Kd (HLA-B*45:06; [7]): ≥ 5000 nM | Kd (HLA-C*14:02 [1]; [7]): 5.7 nM | Kd (HLA-B*83:01; [7]): ≥ 5000 nM | Kd (HLA-A*32:15): 203 nM | Kd (HLA-B*15:42; [7]): 3860 nM | Kd (HLA-B*46:01): 10.1 nM | Kd (HLA-A*69:01): 1.3 nM | Kd (HLA-C*08:02; [7]): 368 nM | Kd (HLA-A*02:03): ≤ 1 nM | Kd (HLA-C*05:01): ≥ 20000 nM

IC50 (HLA-B*51:01): 685 nM | IC50 (HLA-A*25:01): ≥ 20000 nM | IC50 (HLA-A*02:01): ≥ 20000 nM | IC50 (HLA-B*37:01): ≥ 20000 nM | IC50 (HLA-B*08:01): 1080 nM | IC50 (HLA-A*03:01): ≥ 20000 nM | IC50 (HLA-A*31:01): ≥ 20000 nM | IC50 (HLA-B*18:01): 422 nM | IC50 (HLA-A*01:01 [2]): ≥ 20000 nM | IC50 (HLA-A*11:01): ≥ 20000 nM | IC50 (HLA-B*35:01): 8.5 nM | IC50 (HLA-B*40:02): 734 nM | IC50 (HLA-A*24:02): ≥ 20000 nM | IC50 (HLA-B*07:02): 112 nM | IC50 (HLA-B*53:01): 221 nM | IC50 (HLA-A*29:02 [3]): ≥ 20000 nM | IC50 (HLA-B*14:02): ≥ 20000 nM | IC50 (HLA-A*68:02): 224 nM | IC50 (HLA-B*44:03): ≥ 20000 nM | IC50 (HLA-B*58:01): ≥ 20000 nM | Kd (HLA-C*14:02 [4]): 792 nM
Sequence: FPHTELANL

Sequence: RIFPATHYV
Kd (HLA-B*45:06; [8]): ≥ 5000 nM | Kd (HLA-C*06:02): 35.7 nM | Kd (HLA-A*68:23): 197 nM | Kd (HLA-B*83:01; [8]): ≥ 5000 nM | Kd (HLA-B*15:42; [8]): ≥ 5000 nM | Kd (HLA-C*15:02): 17 nM | Kd (HLA-A*69:01): 18.8 nM | Kd (HLA-C*08:02; [8]): ≥ 20000 nM

Sequence: YYRYPTGESY
Kd (HLA-B*45:06; [9]): ≥ 5000 nM | Kd (HLA-C*14:02 [1]; [9]): ≤ 0.1 nM | Kd (HLA-A*80:01): 1460 nM | Kd (HLA-C*04:01): ≥ 5000 nM | Kd (HLA-A*01:01 [5]): ≥ 20000 nM | Kd (HLA-B*83:01; [9]): ≥ 5000 nM | Kd (HLA-A*29:02 [6]): ≤ 0.1 nM | Kd (HLA-B*15:42; [9]): ≥ 5000 nM
